First the molecules themselves.
B1: HDV Ribozyme (parent)
chain: GGCCGGCAUGGUCCCAGCCUCCUCGCUGGCGCCGGCUGGGCAACAUUCCGAGGGGACCGUCCCCUCGGUAAUGGCGAAUGGGACCCA

In this data set the parent is B1. Put plainly: self-cleavage, relative activity (ratio to wild type); higher = more cleavage; co-transcriptional.
Turning to GGCCGGCAUGGUCCCAGCCUACUCGCUGGCGCCGGCUGGGCAACAUUCCGAGGGGACCGUCCCCUCGGUUAUGGCGAAUGGGACCCA, the self-cleavage was found to be 0.

GGCCGGCAUGGUCCCAUCCUCUUCGCUGGCGCCGGCUGGGCAACAUUCCGAGGGGACCGUCCCCUCGGUAAUGGCGAAUGGGACCCA: the self-cleavage turned out to be 0.0959. As for GGCCGGCAUGGUCGCAGCCUCCUCGCUGGCGCCGGCUGGGCAACAUUCCGAGGUGACCGUCCCCUCGGUAAUGGCGAAUGGGACCCA, the figure is 0.776; as for GGCCGGCAUGGUCCCAGCCUCCUCGCUGGCGCCGGCUGGGCAACAUUCCGAGGGGACCGUCCCAUCGGUAAUGGCGACUGGGACCCA, 0.242; as for GGCCGGCAUGGUCCCAGCCUCCUCGCUGGCGCCGGCUGGGCAACAUUCCGAGGGGACCGUCCCCUCGGUAAUGGCGAAUGGGAGCCU, 0.842. In the case of GGCCGGCAUGGUCCCAGCCUCCUCGCUGGCGGCGGCUGGGCAAUAUUCCGAGGGGACCGUCCCCUCGGUAAUGGCGAAUGGGACCCA, the self-cleavage stood at 0.0665.

Turning to GGCCGGCAUGGUCCCAGCCUCCUCGCUGUCGCCGGCUGGACAACAUUCCGAGGGGACCGUCCCCUCGGUAAUGGCGAAUGGGACCCA, the self-cleavage worked out at 0.0955. The result for GGCCGGCAUGGUCCCAGCCUCCUCGCUGGCGCCGGCUGGGCAACAUGCCGAGGGGACCGUCCCCUCGGCAAUGGCGAAUGGGACCCA reads 0.727; that for GGCCGGCAAGGUCCCAGCCUCCUCGCUGGUGCCGGCUGGGCAACAUUCCGAGGGGACCGUCCCCUCGGUAAUGGCGAAUGGGACCCA, 0.776. As for GGCCGGCAUGGUCCCAGCCUCAUCGCUGGCGCCGGCUGGGCAACAUUCCGAGGGGACCGUCCCCUCGGUGAUGGCGAAUGGGACCCA, the figure is 0.203; as for GGCCGGCAUGGUCGCAGCCUCCUCGCUGGCGCCGGCUGGGCAACAUUCCGAGGGGACCGUCCCCUCGGUAAUGGCGAAUGGGCCCCA, 0. For the variant GGCCGGCAUGGUCCCAGCCUCCUCGCUGGCGCCGGCUGGGCAACAAUCCGCGGGGACCGUCCCCUCGGUAAUGGCGAAUGGGACCCA, the self-cleavage amounted to 0.831. The result for GGCCGGCAUGGUCCCAGCCUCCUCGCUGGCGCCGGCUGGGCAUCAUUCCGAGAGGACCGUCCCCUCGGUAAUGGCGAAUGGGACCCA reads 0.407. As for GGCCGGCAUGGUCCCAGCCUCCUCGCUGGCGCCGGCUGGGCAGCAUUCGGAGGGGACCGUCCCCUCGGUAAUGGCGAAUGGGACCCA, the figure is 0.344; as for GGCCGGCAGGGUCCCAGCCUCCUCGCGGGCGCCGGCUGGGCAACAUUCCGAGGGGACCGUCCCCUCGGUAAUGGCGAAUGGGACCCA, 0.935; as for GGCCGGCAUGGUCCCAGCCUCCUCACUGGCGCCGGCUGGGCAACAUUCCGAGGGGACCGUGCCCUCGGUAAUGGCGAAUGGGACCCA, 0.185. The result for GGCCGGCAUGGUCCCAGCCUCCUCGCUGGCGCCGGCUGGGAGACAUUCCGAGGGGACCGUCCCCUCGGUAAUGGCGAAUGGGACCCA reads 0.269; that for GGCCGGCAUGGUCCCAGCCCCCUCGCUGGCGCCGGCUGGGCAACAUUCGGAGGGGACCGUCCCCUCGGUAAUGGCGAAUGGGACCCA, 0.0852; that for GGCCGGCAUGGUCCCAGCCGCCUCGCUGGCGCCGGCUGGGCAACAUUACGAGGGGACCGUCCCCUCGGUAAUGGCGAAUGGGACCCA, 0.0723.

With GGCCGGCAUGCUCCCAGCCUCCUCGCUGGCGCCGGCUGGGCAACAUUCCGAGGGGAACGUCCCCUCGGUAAUGGCGAAUGGGACCCA, the self-cleavage turned out to be 0.453. The result for GGCCGGCAUGGUCCCACCCUCCUCGCUGGCGCCGGCUGGGCAACAUUCCGAGGGGACCUUCCCCUCGGUAAUGGCGAAUGGGACCCA reads 0.342; that for GGCCGGCAUGGUGCCAGCCUCCUCGCUGGCGUCGGCUGGGCAACAUUCCGAGGGGACCGUCCCCUCGGUAAUGGCGAAUGGGACCCA, 0.0437; that for GGCCGGCAUGGUCCCAGCCUCCUCGCUGGCGCCGGCUGGGCAACAUUCCGAGGGGACCGUCCCCACGGUAAUGGCGAAUGGGAACCA, 0.769. With GGCCGGCAUGGUCCCAGCCUCCUCGCUGGCGCCGGCUGGGCAACAUUCCGAGGGGACCGGCCCCUCGGUCAUGGCGAAUGGGACCCA, the self-cleavage was 0.95. Turning to GGCCGGCAUGGUCCCAGCCUCCUCGCUGGCGUCGGCUGGGCAACAUUCCGAGGGGACCGUCCCCUCGGUAAUGACGAAUGGGACCCA, the self-cleavage came out at 0.459. The result for CGCCGGCAUGGUCCCAGCCUCCUCGCUGGCGCCGGCUGGGCAACAUUCCCAGGGGACCGUCCCCUCGGUAAUGGCGAAUGGGACCCA reads 0.342.

As to GGCGGGCAUGGUACCAGCCUCCUCGCUGGCGCCGGCUGGGCAACAUUCCGAGGGGACCGUCCCCUCGGUAAUGGCGAAUGGGACCCA, the self-cleavage stood at 0.0277.

For the variant GGCCGGCAUGGUCCCAGCCUCCUCGCUGGCGCCGGCUGGGCAACAUUCCGAGGGGACUGUCCCCUCGGUAAUGGCGAAUUGGACCCA, the self-cleavage was 0.132. As for GGCCGGCAUGGUCCCAGCCUCCUGGCUGUCGCCGGCUGGGCAACAUUCCGAGGGGACCGUCCCCUCGGUAAUGGCGAAUGGGACCCA, the figure is 0.0692. As for GGCCGGCAUGGUCCCAGCCUCCUCGCUGGCGCCGGCAGGGCAACAUUCCGAGGGGACCGUCCCCUCGGUAAUGGCGAAUUGGACCCA, the figure is 0.0727. The result for GGCCGGCAUGGUCCCAGCCUCCUCGCUGGAGCCGGCUGGGCAACAUUCCGAGGGGACCGUCCCCUCGGUAAUGGCGAAUGUGACCCA reads 0.134; that for GGCCGGCAUGGUCCCAGCGUCCUCGCUGGCGCCGGCUGGGCAACAUUCCGAGGGGACCGUCCCCUCGGUAUUGGCGAAUGGGACCCA, 0; that for GGCCGGCAUGGUCCCAGCCUCCUAGCUGGCGCCGGCUGGGCAACAUUCCGAGGGGACCGUCCCCUCGGUAAUGGCGAAGGGGACCCA, 0.312. Regarding GGCCGGCAUGGUCCCAGCCUCCUCGCUGGCGCCGGCUGGGCAACAUUCCGAGGGGACCAUCCCCGCGGUAAUGGCGAAUGGGACCCA, the self-cleavage worked out at 0.801. For GGCCGGCAUGGUCCCAGCCUCCUCGCUGGCGCCGGCUGGGCAACAUUCCGAGGGGACCGUCCGCUCGGUAAUGGCGACUGGGACCCA, the self-cleavage was found to be 0.101. As for GGCCGGCAUGGUCCCACCCUCCUCGCUGGCGCCGGCUGGGCAACAUUCCGAGGGGACGGUCCCCUCGGUAAUGGCGAAUGGGACCCA, the figure is 0.32; as for GGCCAGCAUGGUCCCAGCCUCCUCGCUGGCGCCGGCUGGGCAACAUUCCGAGGGGAGCGUCCCCUCGGUAAUGGCGAAUGGGACCCA, 0.138. As to GGCCGGCAUGGUCCCAGCCUCCGCGCUGGCGCCGGCUGGGCAACAUUCCGAGGGGACCGUCCCCUCGGUAAUGGCUAAUGGGACCCA, the self-cleavage stood at 1.05. Consider GGCCGGCAUGGUCCCAGCCUCCUCGCUGGCGCCGGCUGGGCAACAUUCCGAGGGGACCUUCCCCGCGGUAAUGGCGAAUGGGACCCA, for which the self-cleavage is 0.914. As for GGCCGGCAUGGUCCCCGCCUCCUCGCUGGCGCCGGCUGGGCAACAUUCCGAGGGGACCGUGCCCUCGGUAAUGGCGAAUGGGACCCA, the figure is 0.7; as for GGUCGGCAUGGUCACAGCCUCCUCGCUGGCGCCGGCUGGGCAACAUUCCGAGGGGACCGUCCCCUCGGUAAUGGCGAAUGGGACCCA, 0.594; as for GGCCGGCAUGGUCCCAGCCUCCUCGCUGGCGCCGGCUGGGCAACAUUCCGAGGGGACCGUCCCCUUGGUAAUCGCGAAUGGGACCCA, 0.528.

As for GGCCGGCAUGGUCCCAGCCUCCUCGCUGGCGCCUGCUGGGCAACAUUCCGAGGGGACGGUCCCCUCGGUAAUGGCGAAUGGGACCCA, the self-cleavage was 0.0811. In the case of GGCCGGCAUGGUCCCAGCCUCCUCGCUGGCGCCGGCUGGGCAACAUUCCGAGGGGACCUUCCCCUCGGUAAUGGCGAAUGGGACACA, the self-cleavage worked out at 0.749.

For the variant GGCCGGCAUGGUCCCAGCCUACUCGCUGGCUCCGGCUGGGCAACAUUCCGAGGGGACCGUCCCCUCGGUAAUGGCGAAUGGGACCCA, the self-cleavage was 0.142. The result for GGCCGGCAUGGUCCCAGCCUCCUCGCUGGCGCCGGCUGGGCAACAUUCCGAGGGGACCGUCACCUCGGUAAUGGCGAAUAGGACCCA reads 0.282; that for GGCCGGCAUGGUCCCAGCCUCCACGCUGGCGCCGGCUGGGCAACAUUCCGAGGGGACCGUCCCUUCGGUAAUGGCGAAUGGGACCCA, 0.935; that for GGCCGGCAUGGUCCCAGCCUCCUCGCUGGCGCCGGGUGGGCAGCAUUCCGAGGGGACCGUCCCCUCGGUAAUGGCGAAUGGGACCCA, 0.0519.

Take GGCCGGCAUGUUCCCAGCCUCCUAGCUGGCGCCGGCUGGGCAACAUUCCGAGGGGACCGUCCCCUCGGUAAUGGCGAAUGGGACCCA: the self-cleavage was 0.112. As for GGCCGGCAUGCUCCCAGCCUCCUCGCUGGCGCCGGCUGGGCAACAUUCCGAGGGGACCGUCCCCUCGGUAAUGGAGAAUGGGACCCA, the figure is 0.0536; as for GGCCGGCAUGUUCCCAGCCUCCUCGCUGGCGCCGGCUGGGCAACAUUCCGAGGGGACCGUCCCCUCGGUUAUGGCGAAUGGGACCCA, 0.228.

GACCGGCAUGGUCCCAGACUCCUCGCUGGCGCCGGCUGGGCAACAUUCCGAGGGGACCGUCCCCUCGGUAAUGGCGAAUGGGACCCA: the self-cleavage was 0.0236. Consider GGCCGGCAUGGUCUCAGCCUCCUCGCUGGGGCCGGCUGGGCAACAUUCCGAGGGGACCGUCCCCUCGGUAAUGGCGAAUGGGACCCA, for which the self-cleavage is 0.0923.

Take GGCCGGCAUGGUCCCAGCCUCCUCGCUGGCGCCGGCUGGGCAACAUUCCGAGGGGACCGUCCGCUCGGUAAUGGCGUAUGGGACCCA: the self-cleavage is 0.277. As for GGCCGGCAUGGUCCCAGCUUCCUCGCUGGCGCCGGCUGGGCAACAUUCCGAGGGGACCGUCUCCUCGGUAAUGGCGAAUGGGACCCA, the figure is 0.244; as for GGCCGGCAUGGUCCCAGCUUCCUCGCUGGCGCCGGCUGGGCAACAUUCCGAGGCGACCGUCCCCUCGGUAAUGGCGAAUGGGACCCA, 0.2.

GGCCGGCAUGGUCCCAGCCUCCUCGCUGGCGCCGGCUGGGCAACAUUCGGUGGGGACCGUCCCCUCGGUAAUGGCGAAUGGGACCCA: the self-cleavage was 0.554. As for GGCCGGCAUGGUCCCAGCCUCCUCGCUGGCGCCUGCUGGGCAACAUUGCGAGGGGACCGUCCCCUCGGUAAUGGCGAAUGGGACCCA, the figure is 0.151.

As to GGCCGGCAUGGUCCCAGCCUCCUCGCUGGCGCCGGCUGGGCAACAUUACGAGGGGACCGUCCCCUCGGUAAUGGCGAAUGGGACCCG, the self-cleavage stood at 0.955.

For GGCCGGCAUGGUCCCAGCCACCUCGCUGGCGCCGGCUGGGCAACAUUCCGAGGGGACCGUCCCCUCGGUAAUGGCGACUGGGACCCA, the self-cleavage was found to be 0.107.

With GGCCGGAAUGGUCCCAGCCUCCUCGCAGGCGCCGGCUGGGCAACAUUCCGAGGGGACCGUCCCCUCGGUAAUGGCGAAUGGGACCCA, the self-cleavage stood at 0.609.

For GGCCGGCAUGGUCCCAGCAUCCUCGCUGGCGCCGGCUGGGCAACAUUCCGAGGGGACCGUCCCCUCGGUAAUGGCGAAGGGGACCCA, the self-cleavage was 0.0923. As for GGCCGGCGUGGUCCCAGCCUCCUCGCUGGCGCCGGCUGGGCAACAUUCCGAGGGGAUCGUCCCCUCGGUAAUGGCGAAUGGGACCCA, the figure is 1.16. As for GGCCGGCAUGGUCCCAGCCUCCUCGCUGGCGCCGGCUAGGUAACAUUCCGAGGGGACCGUCCCCUCGGUAAUGGCGAAUGGGACCCA, the figure is 0.354.

Values taken from the RNAGym collection of RNA variant scans (doi:10.7554/elife.80360).
